Experimental data taken from patent US20240408238.

B1: Nme1Cas9 (Cas9 of Neisseria meningitidis strain 8013) (protein)
chain: MAAFKPNSINYILGLDIGIASVGWAMVEIDEEENPIRLIDLGVRVFERAEVPKTGDSLAMARRLARSVRRLTRRRAHRLLRTRRLLKREGVLQAANFDENGLIKSLPNTPWQLRAAALDRKLTPLEWSAVLLHLIKHRGYLSQRKNEGETADKELGALLKGVAGNAHALQTGDFRTPAELALNKFEKESGHIRNQRSDYSHTFSRKDLQAELILLFEKQKEFGNPHVSGGLKEGIETLLMTQRPALSGDAVQKMLGHCTFEPAEPKAAKNTYTAERFIWLTKLNNLRILEQGSERPLTDTERATLMDEPYRKSKLTYAQARKLLGLEDTAFFKGLRYGKDNAEASTLMEMKAYHAISRALEKEGLKDKKSPLNLSPELQDEIGTAFSLFKTDEDITGRLKDRIQPEILEALLKHISFDKFVQISLKALRRIVPLMEQGKRYDEACAEIYGDHYGKKNTEEKIYLPPIPADEIRNPVVLRALSQARKVINGVVRRYGSPARIHIETAREVGKSFKDRKEIEKRQEENRKDREKAAAKFREYFPNFVGEPKSKDILKLRLYEQQHGKCLYSGKEINLGRLNEKGYVEIDHALPFSRTWDDSFNNKVLVLGSENQNKGNQTPYEYFNGKDNSREWQEFKARVETSRFPRSKKQRILLQKFDEDGFKERNLNDTRYVNRFLCQFVADRMRLTGKGKKRVFASNGQITNLLRGFWGLRKVRAENDRHHALDAVVVACSTVAMQQKITRFVRYKEMNAFDGKTIDKETGEVLHQKTHFPQPWEFFAQEVMIRVFGKPDGKPEFEEADTLEKLRTLLAEKLSSRPEAVHEYVTPLFVSRAPNRKMSGQGHMETVKSAKRLDEGVSVLRVPLTQLKLKDLEKMVNREREPKLYEALKARLEAHKDDPAKAFAEPFYKYDKAGNRTQQVKAVRVEQVQKTGVWVRNHNGIADNATMVRVDVFEKGDKYYLVPIYSWQVAKGILPDRAVVQGKDEEDWQLIDDSFNFKFSLHPNDLVEVITKKARMFGYFASCHRGTGNINIRIHDLDHKIGKNGILEGIGVKTALSFQKYQIDELGKEIRPCRLKKRPPVR
B2: Nme2Cas9 (recombinant, purified; Neisseria meningitidis strain De11444) (protein)
chain: PKKKRKVNAMAAFKPNPINYILGLDIGIASVGWAMVEIDEEENPIRLIDLGVRVFERAEVPKTGDSLAMARRLARSVRRLTRRRAHRLLRARRLLKREGVLQAADFDENGLIKSLPNTPWQLRAAALDRKLTPLEWSAVLLHLIKHRGYLSQRKNEGETADKELGALLKGVANNAHALQTGDFRTPAELALNKFEKESGHIRNQRGDYSHTFSRKDLQAELILLFEKQKEFGNPHVSGGLKEGIETLLMTQRPALSGDAVQKMLGHCTFEPAEPKAAKNTYTAERFIWLTKLNNLRILEQGSERPLTDTERATLMDEPYRKSKLTYAQARKLLGLEDTAFFKGLRYGKDNAEASTLMEMKAYHAISRALEKEGLKDKKSPLNLSSELQDEIGTAFSLFKTDEDITGRLKDRVQPEILEALLKHISFDKFVQISLKALRRIVPLMEQGKRYDEACAEIYGDHYGKKNTEEKIYLPPIPADEIRNPVVLRALSQARKVINGVVRRYGSPARIHIETAREVGKSFKDRKEIEKRQEENRKDREKAAAKFREYFPNFVGEPKSKDILKLRLYEQQHGKCLYSGKEINLVRLNEKGYVEIDHALPFSRTWDDSFNNKVLVLGSENQNKGNQTPYEYFNGKDNSREWQEFKARVETSRFPRSKKQRILLQKFDEDGFKECNLNDTRYVNRFLCQFVADHILLTGKGKRRVFASNGQITNLLRGFWGLRKVRAENDRHHALDAVVVACSTVAMQQKITRFVRYKEMNAFDGKTIDKETGKVLHQKTHFPQPWEFFAQEVMIRVFGKPDGKPEFEEADTPEKLRTLLAEKLSSRPEAVHEYVTPLFVSRAPNRKMSGAHKDTLRSAKRFVKHNEKISVKRVWLTEIKLADLENMVNYKNGREIELYEALKARLEAYGGNAKQAFDPKDNPFYKKGGQLVKAVRVEKTQESGVLLNKKNAYTIADNGDMVRVDVFCKVDKKGKNQYFIVPIYAWQVAENILPDIDCKGYRIDDSYTFCFSLHKYDLIAFQKDEKSKVEFAYYINCDSSNGRFYLAWHDKGSKEQQFRISTQNLVLIQKYQVNELGKEIRPCRLKKRPPVRGGGGSGGGGSGGGGSPAAKKKKLDGGGSKRPAATKKAGQAKKKK

| Protein | in vitro DNA cleavage by Cas9:sgRNA in the presence of Acr (10:1 Acr:Cas9 molar ratio) (AcrIIC3Nme) | in vitro DNA cleavage by Cas9:sgRNA in the presence of Acr (10:1 Acr:Cas9 molar ratio) (AcrIIC5Smu) | in vitro DNA cleavage by Cas9:sgRNA in the presence of Acr (10:1 Acr:Cas9 molar ratio) (AcrIIC2Nme) | in vitro DNA cleavage by Cas9:sgRNA in the presence of Acr (10:1 Acr:Cas9 molar ratio) (AcrIIC4Hpa) | in vitro DNA cleavage by Cas9:sgRNA in the presence of Acr (10:1 Acr:Cas9 molar ratio) (AcrE2) | in vitro DNA cleavage by Cas9:sgRNA in the presence of Acr (10:1 Acr:Cas9 molar ratio) (AcrIIC1Nme) |
| --- | --- | --- | --- | --- | --- | --- |
| B1 | all 5 families inhibited Nme1Cas9 | all 5 families inhibited Nme1Cas9 | all 5 families inhibited Nme1Cas9 | all 5 families inhibited Nme1Cas9 | AcrE2 failed to do so | all 5 families inhibited Nme1Cas9 |
| B2 | completely inhibited Nme2Cas9 | did not inhibit Nme2Cas9 in vitro even at a 10-fold molar excess | completely inhibited Nme2Cas9 | completely inhibited Nme2Cas9 | – | completely inhibited Nme2Cas9 |
